Experimental data as given in patent US9289468B2, “Fusion protein comprising circularly permuted form of trail/Apo2L, coding gene and use thereof” (Beijing Sunbio Biotech Co. Ltd., priority 2011, dated 2016).
“Also recorded” adds a separate entry of the source.

Key:
[1] = tested on: human lung cancer cell line NCI-H460; experiment: TUNEL staining of apoptosis; format: cell-based; details: 15 ng/ml, 4 h
Experimental: FIG. 4. TUNEL assay of apoptosis of human lung cancer cell line NCI-H460 induced by NCPT-1.M1. The NCI-H460 cells were incubated with NCPT-1.M1 (15 ng/ml) for 4 h and then prepared as smears before TUNEL staining. […] In control group, nucleus remains intact, and no characteristic brown stained chromatins are seen (A).
During the process of apoptosis, the genomic DNA can be broken into double-strand, low molecular weight DNA fragments and high molecular weight single-stranded DNA fragments with broken ends (gaps), and these DNA strand gaps can be identified using enzyme-labeled nucleotide 3′-terminal labeling method. In the case of catalytic action of terminal deoxynucleotidyl transferase (TdT), FITC-labeled nucleotide can be incoporated to the free 3′ end nucleotide with template-independent manner, and thereby making the gap of the DNA strand labeled (TUNEL method). The labeling FITC can be recognized by horseradish peroxidase (POD) conjuncated sheep-derived Fab fragment. Upon development with DAB (3,3-diaminobenzidine), the cells stained as brown, which were apoptotic cells, were examined under light microscopy. TUNEL technique is a common method to detect apoptosis. The apoptosis upon incubation of NCI-H460 cell with NCPT-1.M1 was examined using TUNEL technique. […]

[2] = tested on: human MM RPMI8226 tumor cells; experiment: Apoptosis-inducing activity in vivo, RPMI8226 xenograft; set-up: species or system Balb/c nu athymic nude mice
From the text: Athymic nude mice were subcutaneously inoculated with human MM RPMI8226 tumor cells and treated with NCPT-1.M1, then tumor tissue was resected and subjected to conventional HE staining (A, B) and TUNEL staining of apoptotic cells (C, D).
Balb/c nu athymic nude mice (Beijing Huafukang Biotechnology Co., Ltd.) were subcutaneously inoculated with human MM RPMI8226 tumor cells. When the tumor grew to the volume of 700-800 mm3, the mice were divided into a control group (n=3) and a CPT treatment group (n=3), and were intraperitoneally injected with control or NCPT-1.M1 at a dose of 15 mg/kg once a day for 3 consecutive days. On day 4, the tumor volumes were measured (method same as the above), all animals were sacrificed, the tumors were resected and fixed in 10% formaldehyde solution. The tumor tissues were embedded in paraffin, cut into sections, and HE stained following the conventional methods. The apoptotic assay of the paraffin-embedded tissue sections were carried out following instructions of TUNEL Apoptosis Detection Kit (ZK-8005, Beijing Zhongshan Golden Bridge Biotechnology Co., Ltd.). […] To the contrary, the nucleus of normal cells are light blue or blue (FIG. 7A). Upon TUNEL staining, the nuclei of apoptotic cells are stained as brown (FIG. 7D).

[3] = tested on: human COLO 205 xenograft tumor; experiment: Inhibitory activity on human colon cancer xenograft tumors; format: in vivo, Balb/c nu mice
Experimental: 4 to 5 weeks old Balb/c nu mice ♂ (Institute of Experimental Animals, Chinese Academy of Medical Sciences) were subcutaneously inoculated with COLO 205 human colon tumor tissue pieces. When the tumor grew to the volume of 120 mm3, the tumor-bearing mice were divided into 4 groups (n=7/group), which were intraperitoneally injected with normal saline (negative control group), NCPT-1.M1 5 mg/kg, NCPT-1.M1 15 mg/kg and wtTRAIL 15 mg/kg once a day for 10 consecutive days. […] During the experiment, the tumor length diameter (a) and wide diameter (b) were measured every two days with a vernier caliper, and tumor volume (TV) was calculated according to the following formula: TV=½×a×b^2; From the above, the relative tumor volume (RTV) was calculated according to following formula: RTV=Vt/V0. Wherein V0 is the tumor volume measured on the day of the administration, but before administration (i.e., d0), and Vt is the tumor volume measured every time. The relative tumor proliferation rate T/C (%) is used as an evaluation index. Evaluation criteria: T/C (%)>40% means no effect; T/C (%)≦40% and the statistical significance of P<0.05 means being effective.
T/C %=RTVT/RTVC*100%. (RTVT: RTV of the treatment group; […]: RTV of the negative control group).

RPMI8226 xenograft tumor = experiment: Inhibitory activity on xenograft tumor of human multiple myeloma; format: in vivo, athymic nude mice; details: 15 mg/kg i.p. once a day for 8 consecutive days
Experimental: FIG. 8. […] Athymic nude mice (Beijing Huafukang Biotechnology Co., Ltd.) were subcutaneously inoculated with RPMI8226 tumor cells (5×10^6/mouse). When the tumor grew to about 500 mm^3, the mice were divided into several groups, which were intraperitoneally injected with normal saline (control group), NCPT-1.M1 (15 mg/kg) and wild-type TRAIL (wtTRAIL, 15 mg/kg or 45 mg/kg) respectively once a day for 8 consecutive days. The tumor volumes were measured with a vernier caliper every two days.
Athymic nude mice (Beijing Huafukang Biotechnology Co., Ltd.) were subcutaneously inoculated with 5×10^6 RPMI8226 tumor cells/mouse. When the tumor grew to the volume of 500 mm3, the mice were divided into several groups, which were intraperitoneally injected with normal saline (negative control group), NCPT-1.M1 (15 mg/kg) and wtTRAIL (15 mg/kg or 45 mg/kg) once a day for 8 consecutive days. The tumor volumes were measured with a caliper every two days.

[4] = tested on: human multiple myeloma cell line U266; experiment: Combination with melphalan, cell survival (ATPlite); format: cell-based
Experimental: FIG. 9. […] U266 cells are insensitive to CPT. At the concentration of 1 μg/ml, NCPT-1.M1 alone has a mild killing effect on U266 (<20%), but with the presence of melphalan (12.5˜50 μg/ml), both of them can cause enhanced killing effect. The cell viability was assayed with ATPlite luminescent system (PerkinElmer), the data as shown in this figure are all represented as the mean±standard deviation, n=4, #P<0.05, ##P<0.01 vs. melphalan group; *P<0.05 vs. NCPT-1.M1 group.

[5] = 5 mg/kg i.p. once a day for 10 days
[6] = 15 mg/kg i.p. once a day for 10 days

B1: NCPT-1.M1: MG+His6+NCPT-1 fusion protein, SEQ ID NO: 5 (protein)
chain: MGHHHHHHTLSSPNSKNEKALGRKINSWESSRSGHSFLSNLHLRNGELVIHEKGFYYIYSQTYFRFQEEIKENTKNDKQMVQYIYKYTSYPDPILLMKSARNSCWSKDAEYGLYSIYQGGIFELKENDRIFVSVTNEHLIDMDHEASFFGAFLVGGGGGGRVAAHITGTRGRSNT
modifications: NCPT-1.M1 polypeptide sequence
apoptosis by TUNEL staining [1]: a large number of NCI-H460 cells experience apoptosis; also recorded: Almost all of the tumor cells exhibit characteristic of apoptosis
average tumor volume after treatment ([2]; 15 mg/kg i.p. once a day for 3 consecutive days, day 4): 286 mm^3
apoptosis of tumor cells in tumor tissue (HE and TUNEL staining) ([2]; 15 mg/kg i.p. once a day for 3 days): can quickly result in apoptosis of a lot of MM tumor cells
average tumor volume before dosing ([2]; RPMI8226 xenograft, before dosing): 798 mm^3
relative tumor volume RTV [3, 5]: 1.39
tumor proliferation rate T/C(%) [3, 5]: 29.89%
Tumor volume TV beginning [3, 5]: 117 ± 20.4 mm^3
Tumor volume TV ending [3, 5]: 197 mm^3
relative tumor volume RTV [3, 6]: 0.12
Tumor volume TV beginning [3, 6]: 118 ± 21.0 mm^3
Tumor volume TV ending [3, 6]: 15 mm^3
evaluation of efficacy (T/C ≦40% and P<0.05 means being effective) ([3]; both dosage groups of NCPT-1.M1 (5, 15 mg/kg), wtTRAIL 15 mg/kg): effective
Tumor growth rate compared with wtTRAIL 45 mg/kg (RPMI8226 xenograft tumor): significantly lower than that of TRAIL group with a dose of 45 mg/kg; also recorded: significantly lower than that of wtTRAIL group with a dose of 45 mg/kg
killing effect ([4]; 1 μg/ml alone, U266): < 20%
sensitivity of the cell line ([4]; U266 / U266B1): insensitive
